Results taken from paper PMC6435357.
Read-outs that look alike come from different tables or passages of the source.

In the case of Env (BG505.T332N): N197S and N197T, the other (N-glycosylation at N195) is reported as “decreases”.

For Env (LAI): D113N, the other (N-glycosylation at N113) was “no change”.

With Env (LAI): N197S/T the other (N-glycosylation at N197) was “no change”.
